Laboratory results reported in article PMC11670933.

Target: truncated human NOTCH2^ΔERA-TurboID (human)
Test: proximity labelling; TurboID fusions stably expressed in HT-29; 500 uM biotin for one hour; streptavidin beads; label-free quantitative mass spectrometry (DIA, Q-Exactive HF X), TurboID alone as control

- Log2FC NICD2RA-vs-NICD2 (log2 fold change): -2.03
- percent of the NOTCH2 recovered (against NICD2-TurboID): 13%
Substance: endogenous human NOTCH2 (NICD2) (natural protein)
